From publication PMC10825186, “A universal metabolite repair enzyme removes a strong inhibitor of the TCA cycle” (Nature Communications, 2024)

B1: Bt FAHD2A (Bos taurus) (protein)
chain: ATQLPVLPRSEVTFLAPVTRPDKVVCVGMNYADHCREQNVPVPKEPIIFSKFASAIVGPYDNIILPPESQEVDWEVELAVVIGKRGKYIKATDAMAHVAGFTVAHDVSARDWQMGRNGKQWLLGKTFDTFCPLGPALVTKDSVADPHNLKICCRVNGEVMQSSNTNQMVFKTEELITWVSQFVTLYPGDIILTGTPPGVGVFRKPPVFLKKGDEVQCEIEELGVIINKVV
B2: Bs YisK (Bacillus subtilis subsp. subtilis str. 168) (protein)
chain: MKFATGELYNRMFVGLIIDDEKIMDLQKAEKKLFELETIPGSLIECIAEGDKFVAHARQLAEWAKKPNDELGSFMYSLSEVKLHAPIPKPSKNIICIGKNYRDHAIEMGSEADIPEHPMVFTKSPVTVTGHGDIVKSHEEVTSQLDYEGELAVVIGKSGTRISKEDAYDHVFGYTIVNDITARDLQKRHKQFFIGKSLDTTCPMGPVLVHKSSIQEPERLKVETRVNGELRQSGSASDMIFSIPELIETLSKGMTLEAGDIIATGTPSGVGKGFTPPKFLRSGDKIDITIDPIGTLSNQIG
B3: Hs FAHD1 (Homo sapiens) (protein)
chain: MGIMAASRPLSRFWEWGKNIVCVGRNYADHVREMRSAVLSEPVLFLKPSTAYAPEGSPILMPAYTRNLHHELELGVVMGKRCRAVPEAAAMDYVGGYALCLDMTARDVQDECKKKGLPWTLAKSFTASCPVSAFVPKEKIPDPHKLKLWLKVNGELRQEGETSSMIFSIPYIISYVSKIITLEEGDIILTGTPKGVGPVKENDEIEAGIHGLVSMTFKVEKPEY
B4: Ec YcgM (Escherichia coli K-12) (protein)
chain: MYQHHNWQGALLDYPVSKVVCVGSNYAKHIKEMGSAVPEEPVLFIKPETALCDLRQPLAIPSDFGSVHHEVELAVLIGATLRQATEEHVRKAIAGYGVALDLTLRDVQGKMKKAGQPWEKAKAFDNSCPLSGFIPAAEFTGDPQNTTLSLSVNGEQRQQGTTADMIHKIVPLIAYMSKFFTLKAGDVVLTGTPDGVGPLQSGDELTVTFDGHSLTTRVL
B5: Hs FAHD2A (Homo sapiens) (protein)
chain: AAQLPVLPRSEVTFLAPVTRPDKVVCVGMNYVDHCKEQNVPVPKEPIIFSKFASSIVGPYDEVVLPPQSQEVDWEVELAVVIGKKGKHIKATDAMAHVAGFTVAHDVSARDWQMRRNGKQWLLGKTFDTFCPLGPALVTKDSVADPHNLKICCRVNGEVVQSGNTNQMVFKTEDLIAWVSQFVTFYPGDVILTGTPPGVGVFRKPPVFLKKGDEVQCEIEELGVIINKVV
B6: Hs FAHD2B (Homo sapiens) (protein)
chain: AAQLPVLPWSEVTFLAPVTWPDKVVCVGMNYVDHCKEQNVPVPKEPIIFSKFASSIVGPYDEVVLPPQSQEVDWEVELAVVIGKKGKHIKATDAMAHVAGFTVAHDVSARDWLTRRNGKQWLLGKTFDTFCPLGPALVTKDSVADPHNLKICCRVNGEVVQSSNTNQMVFKTEDLIAWVSQFVTFYPGDVILTGTPPGVGVFRKPPVFLKKGDEVQCEIEELGVIINKVV
B7: Sc FMP41 (Saccharomyces cerevisiae S288C) (protein)
chain: MSYNYLKAARKIICIGRNYAAHIKELNNSTPKQPFFFLKPTSSIVTPLSSSLVKTTRPANSTFNGLNEDGTNPGPIFIPRGVKVHHEIELALIVSKHLSNVTKMKPEEVYDSISGVALALDLTARNVQDEAKKKGLPWTISKGFDTFMPISAIVSREKFSSYKSNLQDIFRVKCSVNGQLRQDGGTNLMLHPLHKILQHISTMISLEPGDIILTGTPAGVGELKPGDRVHCELLQNNDNIVDMNFECENRPGPYEFRET

substrate: O=C(O)C=C(O)C(=O)O; experiment: purified protein; conditions: pH 7.5, 22 °C, 10 mM potassium phosphate, 0.3 mM NADH, malate dehydrogenase, OAA added in dry acetone

Compared with B1, B2 is 2.2-fold higher in Km: 20.2 ± 1.4 µM for the first, 43.8 ± 8.1 µM for the second.

First: B3
Second: B4
The Km of the first is 1.7-fold lower: 15.8 ± 5.9 µM for the first, 26.9 ± 0.4 µM for the second.

First: B5
Second: B6
The Km of the first is 13-fold lower: 22.2 ± 3.6 µM for the first, 296 ± 12 µM for the second.

B7 gave a Km of 219 ± 23 µM.

Compared with B1, B2 is higher in Vmax: 53.5 µmol/min/mg for the first, 402 µmol/min/mg for the second.

First: B3
Second: B4
The Vmax of the first is lower: 69 µmol/min/mg for the first, 372 µmol/min/mg for the second.

Going from B5 to B6, the Vmax rises from 22.2 µmol/min/mg to 112 µmol/min/mg.

Molecule B7 has a Vmax of 717 µmol/min/mg.

Compared with B1, B2 is 7.2-fold higher in kcat: 32.7 s⁻¹ for the first, 237 s⁻¹ for the second.

First: B3
Second: B4
The kcat of the first is 5.2-fold lower: 31.1 s⁻¹ for the first, 161 s⁻¹ for the second.

Compared with B5, B6 is 5.1-fold higher in kcat: 13.6 s⁻¹ for the first, 68.7 s⁻¹ for the second.

B7 showed a kcat of 369 s⁻¹.

Going from B1 to B2, the kcat/Km rises from 1.63e+06 M⁻¹ s⁻¹ to 5.81e+06 M⁻¹ s⁻¹ (3.6-fold).

Compared with B3, B4 is 3-fold higher in kcat/Km: 1.99e+06 M⁻¹ s⁻¹ for the first, 5.95e+06 M⁻¹ s⁻¹ for the second.

Going from B5 to B6, the kcat/Km falls from 628000 M⁻¹ s⁻¹ to 232000 M⁻¹ s⁻¹ (2.7-fold).

With B7 the kcat/Km was 1.75e+06 M⁻¹ s⁻¹.

biological target: T1, bovine succinate dehydrogenase (SDH) (Bos taurus, UniProt P31039); experiment: DCIP reduction at […] nm; format: biochemical; conditions: 2 mM malate, 0.1 mM decylubiquinone, GOT and glutamate, pH 7.1, 22 °C; product enol-OAA
T1 construct: gene SDHA; native complex II, dodecyl-maltoside-solubilized and enriched from bovine heart submitochondrial particles; with Succinate dehydrogenase [ubiquinone] iron-sulfur subunit, mitochondrial; Succinate dehydrogenase cytochrome b560 subunit, mitochondrial; Succinate dehydrogenase [ubiquinone] cytochrome b small subunit, mitochondrial
T1 sequence (P31039 44-665): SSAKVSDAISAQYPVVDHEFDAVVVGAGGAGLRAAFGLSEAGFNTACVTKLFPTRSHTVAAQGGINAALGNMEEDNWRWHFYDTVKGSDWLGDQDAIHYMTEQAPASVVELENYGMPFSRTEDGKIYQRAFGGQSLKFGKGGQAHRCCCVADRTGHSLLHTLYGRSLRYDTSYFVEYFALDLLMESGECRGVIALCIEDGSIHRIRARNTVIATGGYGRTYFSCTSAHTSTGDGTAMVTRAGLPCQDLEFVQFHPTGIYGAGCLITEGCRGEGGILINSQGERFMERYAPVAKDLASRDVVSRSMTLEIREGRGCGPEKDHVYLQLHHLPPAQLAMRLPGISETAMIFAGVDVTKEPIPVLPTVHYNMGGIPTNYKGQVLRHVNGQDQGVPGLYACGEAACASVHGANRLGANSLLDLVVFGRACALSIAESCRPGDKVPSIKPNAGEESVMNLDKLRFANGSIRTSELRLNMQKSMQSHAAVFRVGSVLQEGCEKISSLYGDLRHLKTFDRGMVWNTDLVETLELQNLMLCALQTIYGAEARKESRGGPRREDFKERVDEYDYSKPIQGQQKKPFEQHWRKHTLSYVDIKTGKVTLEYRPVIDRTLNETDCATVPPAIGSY
T1 sequence (Q3T189 29-280 partner): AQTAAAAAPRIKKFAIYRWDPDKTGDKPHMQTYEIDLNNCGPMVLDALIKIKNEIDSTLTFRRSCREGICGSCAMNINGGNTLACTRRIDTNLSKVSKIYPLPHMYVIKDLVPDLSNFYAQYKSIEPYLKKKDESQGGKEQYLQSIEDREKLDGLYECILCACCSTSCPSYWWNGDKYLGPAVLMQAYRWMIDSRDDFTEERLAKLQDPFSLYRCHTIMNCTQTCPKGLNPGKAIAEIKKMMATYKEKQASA
T1 sequence (P35720 30-169 partner): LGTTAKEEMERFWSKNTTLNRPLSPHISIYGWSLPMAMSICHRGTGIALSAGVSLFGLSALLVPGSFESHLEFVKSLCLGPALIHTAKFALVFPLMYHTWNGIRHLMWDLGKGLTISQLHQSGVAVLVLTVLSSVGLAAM
T1 sequence (Q95123 56-158 partner): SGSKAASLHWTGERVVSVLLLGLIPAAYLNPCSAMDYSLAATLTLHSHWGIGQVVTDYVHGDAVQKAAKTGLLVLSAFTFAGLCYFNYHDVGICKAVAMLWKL

`O=C(O)C[C@H](O)C(=O)O` [malate] was tested, and the “DCIP reduction at 600 nm” value was “These results confirm that malate oxidation by SDH forms enol-OAA”.
